Source: patent US10881709B2, “Immune system modulators and compositions” (Canimguide Therapeutics AB, priority 2015, dated 2021)

How the values were obtained:
[1] = target: P3028 (SEQ ID NO: 185) (Homo sapiens, UniProt P02768); assay: PEPSCAN ELISA (rampo assay): binding of His-tagged P3028 to immobilised peptides; conditions: truncations, deletions, glycine substitutions
Procedure: Based on the structure of peptide P28R, additional peptides were identified that bind to P3028. The additional binders included deletions, truncations, and or amino acid substitutions of peptide P28R. Binding of peptides to P3028 was assayed using PEPSCAN technology. PEPSCAN technology, or “rampo” assays are biochemical binding assays, details of which are provided below:
A peptide microarray screening technology was used to measure binding of P28R (SEQ ID NO: 2) and variants of P28R to P3028 (SEQ ID NO: 185). In this technology libraries of synthetic peptides are synthesized and covalently linked onto polypropylene microarray chips. The linear peptides were synthesized onto credit-card format polypropylene cards (455 peptide formats/card) as described by (Timmerman et al., 2004) using standard Fmoc-chemistry using hexamethylenediamine (HMDA) as linker and deprotection using trifluoroacetic acid (TFA) with scavengers.
The binding of His-tagged P3028 to each peptide on the card was tested in an ELISA assay. The 455-well credit card format polypropylene cards containing the covalently linked peptides were incubated with His-tagged P3028 peptide (PGE73) solution consisting of 0.5 μg/mL diluted in blocking solution (4% horse serum, 5% ovalbumin (w/v) in PBS/1% Tween). After washing, the peptides were incubated with a monoclonal mouse anti-His-tag antibody (Novagen®, 70796-3, diluted 1/1000 in the incubation buffer) and subsequently after washing with a rabbit-anti-mouse antibody peroxidase (Rampo) conjugate (Southern Biotech®, 6175-05, diluted 1/1000), for one hour at 25° C. After washing, the peroxidase substrate 2,2′-azine-di-3-ethylbenzthiazoline sulfonate (ABTS) and 2 μL of 3% H2O2 were added. The binding capacity of the mAb was measured as a color development at 405 nm (optical density, OD405). The color development was quantified with a charge-coupled device (CCD)—camera and an image processing system.
The OD405-values obtained by a CCD-camera was considered as raw data values (“rampo values,” “rampo units,” or “rampo scores”). The values mostly ranged from 0 to 3000, a log scale similar to 1 to 3 of a standard 96-well plate ELISA-reader. First the CCD-camera made a picture of the card before peroxidase coloring and then again a picture after the peroxidase coloring. […] These values were copied into an excel file and labeled as a raw data file. One follow-up manipulation was allowed. Sometimes a well can contain an air-bubble resulting in a false-positive value. If manual inspection of the cards detect an air-bubble the value are set to 0 for that well.
A library of peptides tested for binding to peptide P3028 included all substitutions for each position of the peptide P28R (SEQ ID NO: 2) (i.e., 19 substitutions for each position). The results of the binding experiments are shown in FIGS. 27, 28, 29 and 30 and Table 5.1. […] P28R had rampo values ranging between 262 and 460 with a mean value of 370. […] In addition, M and S in position 7 (SEQ ID NOs: 9 and 10, respectively), and Q and M in position 11 (SEQ ID NOs: 15 and 16, respectively) all have rampo values over 700.
For each position of P28R, the rampo scores of the group of 19 different peptides containing an L-amino acid substitution were compared to the rampo score of a control sample P28R peptide (SEQ ID NO: 2) for that group. Single-amino acid substitutions having a rampo score greater than or substantially equivalent to P28R were identified. As used herein, a rampo score “substantially equivalent to P28R” is a rampo score that is at least 98% of the rampo score of P28R. Thus, variants of P28R having equivalent or better binding to P3028 were identified.

[2] = system: PBMCs; assay: IL-2 induced proliferation of PBMCs, 3H-thymidine incorporation (human ex vivo model); format: cell-based; conditions: PBMCs from healthy control samples, 7 days, 3H-thymidine
Procedure: 100 μl of RPMI1640 supplemented with 200 IU/ml penicillin, […] streptomycin, 4 mM L-glutamine (all from Sigma® Chemical Co. MO, US) and 20% heat-inactivated human serum (autologous or from cancer patients) were added to uncoated, HSA or HSA/IgG coated tissue culture microtiter plates. PBMC, isolated from healthy individuals or patients with metastatic renal cell carcinoma, were diluted in RPMI/2% HSA at a concentration of 5×10^5/ml and 100 μl were added to the microtiter wells. Interleukin-2 (IL-2, Proleukin®, Chiron®, NL), at a final concentration of 120 IU/well, was added to some wells. Cells were cultured for 7 days in a humidified, 5% CO2-atmosphere at 37° C. Proliferation was assayed by incorporation of 1.6 μCi/well of [^3H]-thymidine (Amersham® Int., UK) during the last 18 hrs. Mean values of dpm (disintegrations per minute) of triplicates were used for the calculations.
Cultures for IL-2 induced proliferation was set up with PBMC from healthy donors and autologous serum as described above with the exception that PBMC were first pre-incubated for 30 min at room temperature with the indicated albumin peptides at a concentration of 10 μg/ml.
Round-bottomed, 96-well tissue culture plates (Costar®, Corning® Inc. NY, US) were pre-coated with HSA only or HSA and pooled human IgG for intravenous injection (Gammagard®, Baxter AS, DK) as follows; HSA was diluted in RPMI1640 without supplements to a concentration of 10 mg/ml. A mixture of 1 mg/ml IgG in a solution of 9 mg/ml HSA in RPMI (HSA/IgG) was also prepared. 200 μl of HSA or HSA/IgG were then added to each well of the plate. The plates were incubated at 4° C. for 30 minutes after which the wells were washed twice with 200 μl of RPMI1640. The coated plates were used immediately. 100 μl of RPMI1640 supplemented with 200 IU/ml penicillin, […] streptomycin, 4 mM L-glutamine (all from Sigma® Chemical Co. MO, US) and 20% heat-inactivated human serum (autologous) were added to the HSA or HSA/IgG coated tissue culture microtiter wells. PBMC, isolated from healthy individuals, were diluted in RPMI/2% HSA and peptides were added directly to the cell suspension at a concentration of 10 μg/ml. One hundred μl of this cell suspension (5×10^4 lymphocytes) was then added per well providing a final concentration of 5 μg/ml peptide per well. IL-2 (Proleukin®, Chiron®, NL), at a final concentration of 120 IU/well, was added to the wells. Cells were cultured for 7 days in a humidified, 5% CO2-atmosphere at 37° C. Proliferation was assayed by incorporation of 1.6 μCi/well of [^3H]-thymidine (Amersham® Int., UK) during the last 18 hrs. Mean values of dpm (disintegrations per minute) of triplicates were used for the calculations.
The model included PBMCs isolated from venous blood samples from healthy blood donors (control samples) or cancer patients. One hundred pI of culture medium (RPMI 1640 Dutch's modification (Gibco®, InVitrogenAB®, Stockholm, Sweden) supplemented with 200 IV/ml penicillin, 200 ug/ml streptomycin, 4 mM L-glutamine (all from Sigma® Chemical Co. MO, US) and 20% heat-inactivated human serum) were added to roundbottomed, 96-well tissue culture plates (Costar®, Corning® Inc. NY, US). […] Control sample wells without IL-2 was set up in parallel. […]
The effect of different peptides on IL-2 induced proliferation was analyzed in the human ex vivo model, using PBMCs from healthy control samples. […] Proliferation was measured as incorporation of ^3H-thymidine during the final 18 hours. […]

[3] = system: PBMCs from healthy control person; assay: PBMC activation (CD69/CD71, flow cytometry) in RPMI plus 10% human AB serum; format: cell-based; conditions: 40 μg/mL
Procedure: The activity of peptide P28R (SEQ ID NO: 2) and modifications of P28R was studied in a human ex vivo model using PBMCs in short term cultures, 24 or 48 hours. Effects of P28R and modifications of P28R on PBMCs from a healthy control person were studied. Activation was measured as percentage of cells with enhanced marker CD69 using flow cytometry. PBMCs were incubated with the peptides (40 μg/mL) for 24 hours in RPMI plus 10% human AB serum.
As observed in Example 37, P28R (SEQ ID NO: 2) can stimulate PBMCs from healthy controls in short term cultures when RPMI plus 10% normal human AB serum is used as culture medium. Truncations of P28R were also assessed for their ability to activate PBMCs. PBMCs were incubated with the peptides (40 μg/mL) for 24 hours in RPMI plus 10% human AB serum. PBMC activation was measured as percent cells with enhanced expression of either CD69 (FIG. 42A) or CD71 (FIG. 42B) using flow cytometry. Two experiments were performed for each peptide.
Effects of modified peptides on activation of PBMCs from healthy control person were assessed. Activation was determined as percentage of cells with enhanced marker CD69 or CD71 using flow cytometry. PBMCs were incubated with the peptides (40 μg/mL) for 48 hours in RPMI plus 10% human AB serum.

[4] = 24 hours, healthy control person

## KKLDTFFVKLSLFTE [SEQ ID NO: 34]
[1]
  rampo score / affinity to P3028 compared with P28R: retained a high affinity

## KVPQVSTPTLVEVSR (listed as Homo sapiens) [P3029]
[2]
  inhibition of IL-2 induced proliferation: none

## KKLDGFFVKLSLFTER [SEQ ID NO: 95]
[1]
  rampo score / affinity to P3028 compared with P28R: comparable to P28R

## KKLDTFFVDLSLFTER [SEQ ID NO: 569]
[3]; [4]
  PBMC activation, cells with enhanced CD69: did not stimulate

## KKLTFFVKLSLFTER [SEQ ID NO: 64]
[1]
  rampo score / affinity to P3028 compared with P28R: comparable to, or higher than peptide P28R

## KKLDTFFVNLSLFTER [SEQ ID NO: 518]
[3]; [4]
  PBMC activation, cells with enhanced CD69: did not stimulate

## RKLDTFFVKLSLFTERRR [compound 32814]
[3]; 48 hours, healthy control person
  PBMC activation, enhanced CD69 and CD71: stimulatory effect in short term cultures similar to that of P28R

## KSLDTFFVKLSLFTER [SEQ ID NO: 510]
[3]; [4]
  PBMC activation, cells with enhanced CD69: did not stimulate

## KKFFVKLSLFTER [SEQ ID NO: 76]
[1]
  rampo score / affinity to P3028 compared with P28R: comparable to, or higher than peptide P28R

## KKLDTFGVKLSLFTER [SEQ ID NO: 96]
[1]
  rampo score / affinity to P3028 compared with P28R: comparable to P28R

## KKLDTFFVKLSLFTFR [SEQ ID NO: 571]
[3]; [4]
  PBMC activation, cells with enhanced CD69: did not stimulate

## FVKL [SEQ ID NO: 63]
[1]
  rampo score / affinity to P3028 compared with P28R: comparable rampo score

## KKLDTVMVKLQLMTER [compound 30680]
[3]; [4]
  PBMC activation, cells with enhanced CD69: induced activation

## KKLDTFFVKLSFTER [SEQ ID NO: 68]
[1]
  rampo score / affinity to P3028 compared with P28R: comparable to, or higher than peptide P28R

## KKLDTFVKLSLFTER [SEQ ID NO: 65]
[1]
  rampo score / affinity to P3028 compared with P28R: comparable to, or higher than peptide P28R

## KKGDTFFVKLSLFTER [SEQ ID NO: 287]
[1]
  rampo score / affinity to P3028 compared with P28R: comparable to P28R

## KKLDTFFVGLSLFTER [SEQ ID NO: 98]
[1]
  rampo score / affinity to P3028 compared with P28R: comparable to P28R

## KKLDTFFVKLGLFTER [SEQ ID NO: 99]
[1]
  rampo score / affinity to P3028 compared with P28R: comparable to P28R

## KKLDTFFPKLSLFTER [SEQ ID NO: 329]
[3]; 24 hours, healthy PBMCs
  PBMC activation, enhanced CD69 or CD71: did not activate
